Assay: soluble on expression in E. coli; label from the status in PepcDB or PDB records

Row | Sequence | soluble on expression in E. coli
1 | MGSDKIHHHHHHMERMSIKYFVNNNSLGPDRNISSVGFEEIPPNTSYPTLNHSAGYYFNPDKGRILTEYQLIYITEGEGVLETRSGGVFTIKRGMIFVLFPGEWHTYYPNYQTGWSHYWIGFCGPEVDSWMTNEYCSKESPVFKVGINDEIVSLFRKAIDVANEEPTLYQRVLSGLVTYLVALMCSIDKNLQVENDDFSSKIDYACVLMKELIDQPVSMQEIAKKAGMGYSLFRKLFKEQKNYAPVQYFQNLKIQKAIELLTTTTIPVKEIAYRLDFESPAYFSARFKKQTGKSPIEYREEFRIK | not soluble
2 | MGSDKIHHHHHHMNLAGAQLTENELMRLTVSNIAQATSLPALIQEHGRWCCQRCGDRKPVQLPDGRFYCSACVSLGCLTNRDLLYRFEQPHRPVGDGLLTWHGTLTPAQQKASTALQTSVTAGADHLIWAVTGAGKTEMLFPTISQMVQQGKRVAIVSPRIDVIRELAPRLRTAFATTPIAVRYGGHFDQTDSDLVLATVHQLLRFHRAFDLIVVDEVDAFPMAGTPMLHRAVQGARRGPVVYLTATPDRPLKAAMRKGLMVSRLFRRFHGHPLPVPAIRLMNFKKLPSQLPPAIVKWVRDVVATGRSCLLFVPKISWAPQIAALVQRNGLRVAGVASTDRLRAEKITAFRQRQIQVLVTTTILERGVTVSKCAVGVVAAADRAFTASALVQIAGRAGRAADSADDPVVFFTDRYTLALLAAKRQIVMMNGR | not soluble
3 | MGSDKIHHHHHHMNVPFPKRDHGGGLDAAAAEYGGDLEAWLDLSTGINPNAYPVGQLPQDIWGRLPDEGAMARLLDAARSFWSVPDGVEVIAAAGASPLIARMPDMTAFSGAYIPVPTYNEYAAAFAARGRLNDPLNPQNPVHVYVHPNNPDGRMWPGSVIGGRPLTIIDESFCDTVPDKTHMARAAEPGVIILKSFGKFWGLAGLRLGFAIAAPETFARSSSSASLQELMGPWSVSGPALEIGARALQDHAWAEATRVRLGHDAARLDDMLLSAGAEIVGGTTLFRTYAWEQGAEVWQKRLAEHRIWSRIFPYSTNWMRLGLPATDEDWARLDAAL | not soluble
4 | MGSDKIHHHHHHMPLLIDIRKLTLITRLIQDGAEQVADSLATLAGVDAAVEIKSLSFVQPEDIATEMGGGTIYSARVRLTEPPYGVFLMTFETETAAEIAELMTGSSVEDGFTQLHESALQEMCNILTSGFIDGIANTLNATINMGTPTVVQDDATEIADKALSHVRRDSLTIVLDSLVDIKESDVAFSLRIFLIPDPGSFVHLIDQLDYDTDRETHISADTDAVKELDMSGDADALDAFDSSK | not soluble
5 | MEFVVEEGKLVNEDCSTLVLPALSIGNVGQLAVDLLVSSTGAERVGYLDDPNLLPCVGNDAYGPLPCGEIALPLEVYESSSIATTLAQQRSPVAKGMMIKFAENIANFAASSGKKHIIVLSSLDFQRLHNLDMSRGPQVYYLSNAESDGRDDHCERLGFGRLHEYDSEGRCWKYLSSVFEKNSVEELALPSEDELEDIDYYPSLPFAALFSAFKARGLKMTCLLCYCSEGDNIPEAFLLAEASSKLMGLTPDKFHGEEGGKWQIPYSWKSMYGAPPDMSMF | soluble
6 | MGSDKIHHHHHHMAEIDFIGRYHNATKRDYVQRVVEYDKAECAATAKQWGFDYWDGDRRHGFGGMRYDGRWLPLAEDLVRHYGLKAGDKVLDIGCGKAFLLYEMTRACPGLTVAGLDISEYGINNAKEEVRPFLTLGNATRLPWPDRHFDLVISINTFHNLQIHELDQAVREMQRVSTGRGYICVESYRDESEKANLLYWQLTCESFHRPEGWRWVYDQAGYTGDHGFIYFQ | not soluble
7 | MAHHHHHHMSGQAGKQVAPVKCKGWAVEKPALKWSTDAVRLSDVTVPAPDPTQIRVRVYAASINPVDWKRVMFPASGSGPGVAGSALKGFKGMHHKPPNYPYPYVVGVDGAGEVESVGRKVTGLKAGDRVMFHSSLTNAHGGSLCEYAVMEESVAVPIPADGARPFSYEEAAAIPCATWTAYVALFDKLRIEPGRSIFVDGASGAVGSCAVQLAHHMGLYVFASCSPSNADYVRSIGADQVLNYHDGIEMVDQILDATEGYGVDYYLAVTNTQDAESFTDALRFGGAVCLLSGVLIPNSNVLFRRQLSVHYVFLNGLHGHPLTRPQLRYIGDQVAKLYQSGAFRLDVEVLPFAEAAKALDRSATGNVNHKKLIVQVASP | soluble
8 | MSLTTENQNPLVLDKNEEISQQKADDIRLQLRQEPEVKRLAQQIDVKNQMELLEYGKEPAVEISKFSDRILGMMKTTSVTDSGTMLTQLGKIMDRFDKNDFDEPKGLMAKIFKRGGSMIEKIFKKYQTLGGEIEKIHVEISKYKDEMTKTNYTLDEMYENNIKYYMELEKYVVAGQMKLEEMQSILPSYEEKAASGNQLAQMQLDTLRNGIQALEERVYDLDMARMVALQTAPQIRLLQRGNAKLIGKINSAFIITIPIFKNGIIQAVTVKRQKLVADSMSELDRRTNEMLKRNAENISSQSVEIARMAGRPSIDIETIESSWNTIVSGMQETKQIEEENKRLREDGARRIAQLQDNIKKAALQQEGHHHHHH | not soluble
9 | MEMAYDFAETKDTAIIFIYRPPVGDIQISPVLEGPRRLRLWNDITISLYKDVYPDIRLIESRSRVEVHLRKVEMVRWGGINGRPADKPQDDGKETMVEDSGDEENPSVMDLFSKIYQRSGDDVRRAMEKSFYESEGTVLSTDWDQVKSKKITRED | not soluble
10 | MGSDKIHHHHHHMAGAFDAGFWLPVLERLPDFRGDCIDMGFYGQPKRPKVPRPLILAHSMGLAWALAHIPRPWAGVFAVNAFPRFTRSPTFVEGVPPRLIERMLARFDETPAQVTADFLTRCGLDNPDTSAIDAAPLKDELAWLARCDERTALRMLPCPVLALAGTSDPIVPQGMSTASFAPDTLTLVDGAGHLLPLTHPDWVAAQIRLFAARLEA | not soluble
11 | MAHHHHHHMETENVPLENEENQNENYEQEENTLAQEAEIVLITTSLGGIKSSFFSSLRAHQLLNCKKYIYFSIDANRDTSSAKNLKDIELFNKWKKGMILLSNENGIVLPQILIDGVPLGNDVTLQNLEDEGILDYIIARLKCPNCLIDKSNIEERCPGCKKYYVTLITDDLIQNDSVIRILQGEPYKEPENE | soluble
12 | MSLNNIAPQSPVMRRLTLQDNPAIASVIRQVYAEYGLTADKGYTVADPNLDELYQVYSQPGHAYWVVEYNGEVVGGGGIAPLTGSEADICELQKMYFLPAIRGKGLAKKLALMAMEQAREMGFKRCYLETTAFLKEAIALYEHLGFEHIDYALGCTGHVDCEVRMLRELEGHHHHHH | not soluble
13 | MGSDKIHHHHHHMDSEFANAVELSYECAPLLESLKEYSEKDIACFDVPGHVKNRGVAILNKYLGESLMKMDINSSPTMDNVSAPNGIIKNAQDLLAQAYMADEAFFITNGTTQAIHAMILSVIKPGEKVLLPRNIHKSVINALILCGGIPIFIQPEFDEKLGISLNITLEKVRTEIEKDCNIKALFFLNPTYYGVCADLESIIELCHKNNVLVLVDEAHGAHFPFHLDLPPSAISLGADMVAVSIHKTGGALTQSSALLLNRDNVSFEKVLQSINMLQSTSASYLLMASIDGARVNLVENGEKQLSKALNLSRYAKSKLNKIDGIKVLSTEILKQKGVKFIDETKLCINVKELNLTGFEVYDLLYKNFSIQVELGDSYNILALVSIGTNKSDIDRLVKALSIIAKVYRKESTLNEFNMVQINPIIKLNPREAFYAPKESVEINSCIDRICGESIMAYPPGIPIIAPGELITEEIMEYIIFLKNSNAYLTDVQDKNLDRILVIK | not soluble
14 | MRYAIMVTGPAYGTQQASSALQFAHALLNEGHELASVFFYREGVYNANLLTSPASDEYDLVRVWQKLNTQHGVALNICVAAALRRGIIDETEAGRLELPSANLQPGFTLSGLGALAEASLTCDRVVQF | soluble
15 | GGAFTWDTDFNISFNRNKLTKLELQKVYYDAKTADVVNDYVVRNEPGRALGGFYGYISDGVDPETGELMYRDLSGDGKISTSDRTYIGDPNPDFTYGLTNTFSWKGFNLSVFIQGSYGNDIFNASRIETEGMYDGKNQSTKVLNRWKIPGQITNVPKANFKLLNSTYFIEDGSYLRLKDVSLSYNFKGKLLQKWGITRLQPYFTATNLLTWTSYSGMDPEVNQWGNSGTVQGIDWGTYPHSRSYVFGINVEF | not soluble
16 | MSIPITVKTVADLIIGEKGIICGFTDEETSLKLLEMGCLPGCEIELDRKAPLGDPICINVCGYTLSMRLEEASTILLSLEHHHHHH | not soluble
17 | RTRKGIELIPLDQVIYFIADHKYVTLRHEGGEVLLDEPLKALEDEFGDRFVRIHRNALVARKRIESMKRTPVGHFELFLRGLNGDALIVSRRHVAGVRKMMQQL | not soluble
18 | MADKLFSIRNYFFLGSYQSCIGEALKFSSKNEEEKQEKDVYLYRSYIAQGQAFIPLKEIPAATKSADLAAVRRYAEFRNNPAAKKKILAEVQEEVASRNIKSEIAAVLAATILNEADLSQDAFRAVSRFEGLEARASKVFILIKMNKRKLAIGEVKKMNQIDEDATLSQLANALVTSFGASGKVKDALYIYSEMSDKYGRTTDLEMHQAVVSILTQDYAAAEELLESALERDNKDADVLINSIVSAQLNEKDDDVVERFISQLKHEHPNHPWVIDFNEKEAEFDRVASDSRA | not soluble
19 | MMALDDTVTIKPIRAEHVESFHRALDAVSRERKYLSFLEAPPLEAVRAFVLDMIENDHPQFVAIADGDVIGWCDIRRQDRATRAHCGTLGMGILPAYRNKGLGARLMRRTLDAAHEFGLHRIELSVHADNARAIALYEKIGFAHEGRARDAVSIDGHYIDSLNMAIIFGN | soluble
20 | MGSDKIHHHHHHMVKRMKLPESKNLSLYWEKYSFLLLEGSNSKDKEIVSKIFQTVEKLQSDFGKISSILKERREQLIKKRKPFINLKMRVKGKLLLGAGNPSSIEVGITLSRNYGLPIIPGTAVKGAFASFLFEFERDKYESLAHIFGDTEREGDLIFLDAIPVSDLKFSLDIVNPHFQPYYMKEKLPPNDWYDPVPIKYLVVSSGVFWFTVLESRSGVIGNSEKELIKQRFVEMLKAYGLGAKTSYGYGRFEEPS | not soluble
21 | ASHSRKFLDVRSEEELLSCIKKETEAGKLPPNVAAGMEELYQNYRNAVIESGNPKADEIVLSNMTVALDRILLDVEDPFVFSSHHKAIREPFDYYIFGQNYIRPLIDFGNSFVGNLSLFKDIEEKLQQGHNVVLISNHQTEADPAIISLLLEKTNPYIAENTIFVAGDRVLADPLCKPFSIGRNLICVYSKKHMFDIPELTETKRKANTRSLKEMALLLRGGSQLIWIAPSGGRDRPDPSTGEWYPAPFDASSVDNMRRLIQHSDVPGHLFPLALLCHDIMPPPSQVEIEIGEKRVIAFNGAGLSVAPEISFEEIAATHKNPEEVREAYSKALFDSVAMQYNVLKTAISGKQGLGASTADVSLSQPW | soluble
22 | MIDHALALTHIDERGAARMVDVSEKPVTLRVAKASGLVIMKPSTLRMISDGAAAKGDVMAAARIAGIAAAKRTGDLIPLCHPLGLDAVSVTITPCEPDRVKILATTTTLGRTGVEMEALTAVSVAALTIYDMCKAVDRAMEISQIVLQEKSGGRSGVYRRSASDLACQSR | soluble
23 | GSHMRKTLVLLGAHGVGRRHIKNTLITKHPDRFAYPIPHTTRPPKKDEENGKNYYFVSHDQMMQDISNNEYLEYGSHEDAMYGTKLETIRKIHEQGLIAILDVEPQALKVLRTAEFAPFVVFIAAPTITPGLNEDESLQRLQKESDILQRTYAHYFDLTIINNEIDETIRHLEEAVELVC | soluble
24 | MGSDKIHHHHHHMSFLQEINLKLDVFEGPLDLLLHLIQKLEIDIYDIPITAVTEQYMSYIHAMQTLELEVAGEYLVMAATLMAIKSQMLLPKQELEIIDDEDFFEEEDPREALVAQLLEYRKFKYAATVLHEKEEERKLYYTKEPMDMDDYKEEDTTLPPNQINTIDLFLAFHAMLEKKKNRQPVETTVASDDVSIEEKISAISERMRQVQKGKAVSFDSFFDSYSKQEIVTTFMALLELMKTGAIYAEQENNYSEILLFNTETQQEDTTEVEETQ | not soluble

Source: the DeepSol protein solubility set
